Test results reported in article PMC4609182 (2015).

Experiments:
[1] = target: T1, Parkin R0RBR module (RING0, RING1, IBR, RING2), wild type (rat, UniProt Q9JK66 141-465); assay: ITC
T1 chain: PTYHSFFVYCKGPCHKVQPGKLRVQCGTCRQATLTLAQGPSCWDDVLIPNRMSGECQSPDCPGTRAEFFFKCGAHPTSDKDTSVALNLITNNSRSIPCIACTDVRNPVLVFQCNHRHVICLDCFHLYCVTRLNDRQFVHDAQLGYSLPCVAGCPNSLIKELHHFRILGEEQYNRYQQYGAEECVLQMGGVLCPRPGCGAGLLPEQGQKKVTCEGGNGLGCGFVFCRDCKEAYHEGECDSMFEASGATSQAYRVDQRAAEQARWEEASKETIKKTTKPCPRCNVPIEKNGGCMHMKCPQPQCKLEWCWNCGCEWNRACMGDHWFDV

[2] = target: Ub (Homo sapiens); assay: ITC

B1: Parkin Ubl domain (ubiquitin-like domain), unmodified (domain or fragment)
chain: MIVFVRFNSSYGFPVEVDSDTSIFQLKEVVAKRQGVPADQLRVIFAGKELQNHLTVQNCDLEQQSIVHIVQRPQRK
Q: With B1 as the binder, how does the Kd [1] read?
A: 14 µM

B2: Parkin R0RBR module (RING0, RING1, IBR, RING2), wild type (domain or fragment)
chain: PTYHSFFVYCKGPCHKVQPGKLRVQCGTCRQATLTLAQGPSCWDDVLIPNRMSGECQSPDCPGTRAEFFFKCGAHPTSDKDTSVALNLITNNSRSIPCIACTDVRNPVLVFQCNHRHVICLDCFHLYCVTRLNDRQFVHDAQLGYSLPCVAGCPNSLIKELHHFRILGEEQYNRYQQYGAEECVLQMGGVLCPRPGCGAGLLPEQGQKKVTCEGGNGLGCGFVFCRDCKEAYHEGECDSMFEASGATSQAYRVDQRAAEQARWEEASKETIKKTTKPCPRCNVPIEKNGGCMHMKCPQPQCKLEWCWNCGCEWNRACMGDHWFDV
modifications: unmodified (non-phosphorylated) ubiquitin; only the figure label 'Ub' is given, so wild type is assumed (the non-phosphorylatable control in Fig EV3B is a separate His-tagged UbS65A)
Q: Which Kd [2] does the source give for B2 here?
A: 41 µM
